Reference: PMC11722252

Target: Caenorhabditis elegans leucine-rich-repeat-containing GPCR (CeLGR), residues Gln31 to Arg712 (Caenorhabditis elegans) (UniProt G5EG04)
Test: MST

C. elegans α2/β5 heterodimeric hormone (Ceα2β5) (from UniProt A7DT38 20-125) (complex)
Kd: 153 nM
